Reference: a protein production outcome set (Wang et al. 2014)

Test: label from the status in PepcDB records

Sequence | protein production
MKHPDPAQKVEGTTATTPTKVAAFFDLDKTIIAMSSTYAYGREFMNSGLISPVEALQLSLAQATYMFAGHTSEQMDNTRDQLTAMIRGWEVQQVRSIAEETMHSVVTPTIYAEARELIEHHQELGHDVIIISASVKELVEPIARELGVHKTVTTVLEAHDGMYTGEVLFYCKGDAKAQSILDLAEANNYDLSLSFAYSDSFTDLPMLEAVGNPAAVNPDRALKKIALEQGWKILSFKNPEPLFQMPSTRDVGIGTGVVAGIAAVTAGSIWWMKRARRGSA | failed
MKHVHGNGLVLGAAAFVFLAAQPVSAQTTQITEVKLNPGNGGLSVVLKTSAGSRPQVFTTKRGKALVADIINTQLRLPQGNNFRQDKPAAGIASVEVVQLDANSIRVIVTGDSDAPTSQPVIRQQDGITLSLTPSTGTTASAPVTPRPPVSTTPPASTPAQTGVVPNVLVPNPQVTIDGKPAQPAGPGQPLSQAPPFLPRAVAPPVGDIAISATDASPSTIDLGTQERVPRLVLRDAPVREVLSLLARAANLNLAYISDGVGGTPAAGGQGISQTISLDIENEPVQDVFNYVLRLSGLEANRSNRTIFVGPKLPNSTRDVVMRNLRLNQVNVGVALNFLVGLGAETAVSRERQVTNVNAVPVGTGVAPITQTQTTTETRVETQRINFQDSNPLLRGLQALGDERTNSLTLIGPPKLVEMAMNQLTQLDIRRRQVVVNVKIIDVNLSNTQDNNASLSFGIGNNYFSSDGGAASLNIGGLNPPSAGNVRNSLNPTVTTNPYSSGNTFLDLTQSVGPVPDTGVDTRNITINNPGGGSITETQGQDLNFVQRRAGISGDPFETGITAVTQGTPNIIRRTTTTDPTTGAVTETTTVTEGTRGSITAALPSLFQYPKRLLANLQAQVTNGNAKILTDPTLIVQEGQTANVKLTQEVVGNITSETTRGDGASTQTVTAEKTDVGLTLAVKIDRIDDNGFVSLSVAPVVKAPQSSAVINVSGNSQTIFLVSERSLNSGMIRLRDGQTLILSGIIQDQDRTSVSKIPILGDIPLIGSLFRKTNRTNERREVIVLLTPQVMDDSQNSSYGYNYSPSPEVRQMLERRGLNTPRR | failed
MKHVRSHLPRVLLGLMISVSLVLAGCANNGTGSSMLGGSGTDPDPRLTKSTDSSFFSTSGLTACAAAAGVGILACAVASPSDKVKCMVVAGIAACGVAMGANYYYDYRRSKYSNTAQRLQLMNDDVKADTEKVAQRTYTLQQVINDDKERIAGIQKSIKTKTLDKAKAQQEIASVDSNLAQMNKDLTGMRSKVAEYKKTADLERASDGGTQVTAIDGEISKMNSKVASLQKEVDGLYSQRQAITLG | failed
MKIAIAGAGAMGSRLGIMLHQGGNDVTLIDQWPAHIEAIRKNGLIADFNGEEVVANLPIFSPEEIDHQNEQVDLIIALTKAQQLDAMFKAIQPMITEKTYVLCLLNGLGHEDVLEKYVPKENILVGITMWTAGLEGPGRVKLLGDGEIELENIDPSGKKFALEVVDVFQKAGLNPSYSSNVRYSIWRKACVNGTLNGLCTILDCNIAEFGALPVSESLVKTLISEFAAVAEKEAIYLDQAEVYTHIVQTYDPNGIGLHYPSMYQDLIKNHRLTEIDYINGAVWRKGQKYNVATPFCAMLTQLVHGKEELLGAK | not failed
MKIAIASGKGGTGKTTVAVNLALALEEVQLFDCDVEEPNCNLFLGFEMEPVEEVVFLVPEINPDKCTLCRGCSDFCRYNALAAIPNRILSFPSLCHGCGGCSFVCPAGAIEEKPETIGIIQKALSDSPLTFFCGTLKIGKATATPVIKSLQNHIDESRPAIIDSPPGTACPVLAVMGFADYCVLVTESTPFGFHDFCLALEAARALNVPVGVVLNRDGLGDSRVEDFCRAEGIPILLRIPNDRTIARLYSEGIPFVKEMPEWKKQFKDMFETIKTGLYESKGVQLEHHHHHH | failed
MKIAIFGTTLHAGVMAALLAERGNDVFWCADHDYKGLEEQIVCQTYQEQDVNRLLVKQRQLGFLKDCRFSSIPLDIEAYLFCFSPTELQFALEVTQLLNIRPIIHPRLMINGSTFGLHGTEKLKQNLPKDHWVYFPDMIQEGNAINSVLTVKHVIVGVESDYTKTIMHEMLRPFFRFNHQYLFMPILDAEFTKLSISGMLATRISYMNDMALVAEKLGIDIANVKEGMAADTRIGSAYLSAGVGFGGENFSHDILTLSNVVSDTGARSRLLEQVWEINEQQKEVLFRKLWNYYHCDLKDKVVAIWGAAFKENTSNIHNAPIHSMLTALWAQGAIVKLHDPQALEEIQARYGKRNDLILCTEQYEATRGAHALCVMTVWKQYLSPDYKKLQQLMAHPFILDGRNVYDPVYIKQQGFAYEGIGRL | failed
